From patent US20240369568A1

Assays:
Experiment in all cases: SPR, release and stability method, specific binding activity
[1] = target: FcRn (UniProt P55899)
[2] = target: FcγRIIIa (UniProt P08637)
[3] = target: BCMA (the 'Antigen' of the SPR antigen binding assay) (human) (UniProt Q02223)
BCMA (the 'Antigen' of the SPR antigen binding assay) (human), sequence (Q02223 1-54 limits assumed): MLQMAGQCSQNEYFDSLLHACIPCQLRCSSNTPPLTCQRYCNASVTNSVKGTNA

FcγRIIIa, sequence (P08637 17-208 limits assumed): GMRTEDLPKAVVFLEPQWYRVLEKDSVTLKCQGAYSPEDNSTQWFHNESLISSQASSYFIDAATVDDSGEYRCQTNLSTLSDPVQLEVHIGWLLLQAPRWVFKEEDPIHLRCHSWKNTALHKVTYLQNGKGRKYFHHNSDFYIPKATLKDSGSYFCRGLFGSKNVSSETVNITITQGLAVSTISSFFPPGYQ

FcRNn Binding (%) (specific binding activity) [1]: 101%
FcyRIIIa Binding (%) (specific binding activity) [2]: 97%
Antigen Binding (%) (specific binding activity) [3]: 96%
Substance: Control (sample of Table 11)
